Experimental data published in patent US20210380675A1 (Kyowa Kirin, published 2021).

T1: human IL-36α(R12), truncated (human, UniProt Q9UHA7 6-158)
T1 chain: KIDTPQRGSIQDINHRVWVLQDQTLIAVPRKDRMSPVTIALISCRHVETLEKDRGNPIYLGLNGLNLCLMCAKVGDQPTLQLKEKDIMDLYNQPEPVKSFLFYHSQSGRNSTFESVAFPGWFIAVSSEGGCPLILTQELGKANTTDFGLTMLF

T2: cynomolgus IL-36α, truncated (cynomolgus macaque (Macaca fascicularis), UniProt Q9UHA7 14-158 (human entry), limits assumed)
T2 chain: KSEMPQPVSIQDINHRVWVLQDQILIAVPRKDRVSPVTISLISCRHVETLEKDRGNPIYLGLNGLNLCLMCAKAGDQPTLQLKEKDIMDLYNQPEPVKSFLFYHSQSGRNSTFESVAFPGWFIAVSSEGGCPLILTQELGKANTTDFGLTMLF

T3: human IL-36γ, truncated (human, UniProt Q9NZH8 18-169)
T3 sequence: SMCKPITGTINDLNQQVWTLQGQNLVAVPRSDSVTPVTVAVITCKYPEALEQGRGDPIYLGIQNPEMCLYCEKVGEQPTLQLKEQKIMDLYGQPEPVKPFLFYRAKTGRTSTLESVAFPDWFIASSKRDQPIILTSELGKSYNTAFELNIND

T4: cynomolgus IL-36γ, truncated (cynomolgus macaque (Macaca fascicularis), UniProt Q9NZH8 18-167 (human entry), limits assumed)
T4 chain: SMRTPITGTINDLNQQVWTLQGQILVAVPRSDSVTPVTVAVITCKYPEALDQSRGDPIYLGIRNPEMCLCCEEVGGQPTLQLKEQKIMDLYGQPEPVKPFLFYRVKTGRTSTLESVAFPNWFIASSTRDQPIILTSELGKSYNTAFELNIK

T5: human IL-36α(Q12), truncated (human, UniProt Q9UHA7 6-158)
T5 construct: Untagged after removal of the His-SUMO tag
T5 sequence: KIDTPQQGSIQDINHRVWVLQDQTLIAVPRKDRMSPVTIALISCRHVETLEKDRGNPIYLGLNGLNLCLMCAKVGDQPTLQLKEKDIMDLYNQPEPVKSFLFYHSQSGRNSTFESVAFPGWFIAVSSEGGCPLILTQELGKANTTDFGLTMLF


Legend:
[1] = target: T1, human IL-36α(R12), truncated; experiment: cell-based or functional assay
[2] = target: T2, cynomolgus IL-36α, truncated; experiment: cell-based or functional assay
human IL-36γ, truncated [3] = target: T3, human IL-36γ, truncated; experiment: cell-based or functional assay
[4] = target: T4, cynomolgus IL-36γ, truncated; experiment: cell-based or functional assay
[5] = target: T1, human IL-36α(R12), truncated; experiment: cell-based or functional assay
human IL-36γ, truncated [6] = target: T3, human IL-36γ, truncated; experiment: cell-based or functional assay; remark: listed apart in the source
[7] = target: T1, human IL-36α(R12), truncated; experiment: cell-based or functional assay
human IL-36γ, truncated [8] = target: T3, human IL-36γ, truncated; experiment: cell-based or functional assay; remark: listed apart in the source
[9] = target: T1, human IL-36α(R12), truncated; experiment: SPR, Biacore T200, antibody on chip, IL-36 as analyte, 1:1 Langmuir fit
Procedure: (§1) Antibodies were further tested for their binding to recombinant human or cynomolgus IL36α, IL-36γ in Biacore assays. In order to kinetically analyze the binding activity of the IL-36α and IL-36γ dual antagonist antibodies, the binding activity to human and cynomolgus IL-36α and IL-36γ was measured by surface plasmon resonance method (SPR). All of the following manipulations were carried out using a Biacore T200 (GE Healthcare Life Sciences, Pittsburgh, Pa.).
(§2) To determine antibody affinity to human and cynomolgus IL36, recombinant antibodies were immobilized on a CM5 sensor chip (cat# BR100012, GE Healthcare Life Sciences, Pittsburgh, Pa.) by an amine coupling chemistry. In particular, the kinetic assay was carried out by immobilizing on the chip approximately 2000 RU of recombinant antibody. Thereafter, recombinant human or cynomolgus IL36 proteins, serially diluted from a high concentration, were allowed to run at a flow rate of 30 μL/min onto the chip for 420 seconds. The dissociation time was 3600 seconds and the binding curves were measured at 25° C. Regeneration was performed with 10 mM glycine pH 1.5 for 30s. Alternatively, the analytes were injected with increasing concentrations in a single cycle, the surface not being regenerated between injections, using a method referred to as “single cycle kinetics.” In particular, either anti-human or anti-mouse Fc specific antibodies were immobilized on a CM5 sensor chip (cat# BR100012, GE Healthcare Life Sciences, Pittsburgh, Pa.) by an amine coupling chemistry. Thereafter, IL-36α and IL-36γ dual antagonist mouse/human chimeric or mouse antibodies were captured at approximately 200 RUs, followed by injections of increasing concentrations of recombinant human and cynomolgus IL36 proteins. The association time was 300 seconds, and the final dissociation time was 1200 seconds. At the end of the analyte injections, the surface was regenerated with either 3M MgCl₂ (anti-human Fc capture antibody) for 30 s or 10 mM glycine-HCl pH 1.7 for 180 s (anti-mouse IgG capture antibody).
(§3) The raw data were double referenced by subtraction of the signals from a reference flow cell without immobilized ligand and a buffer blank. The sensorgram corresponding to each concentration was obtained.

[10] = target: T5, human IL-36α(Q12), truncated; experiment: as above
Procedure: as §1, §2, §3

human IL-36γ, truncated [11] = target: T3, human IL-36γ, truncated; experiment: as above
Procedure: as §1, §2, §3

[12] = target: T2, cynomolgus IL-36α, truncated; experiment: as above
Procedure: as §1, §2, §3

[13] = target: T4, cynomolgus IL-36γ, truncated; experiment: as above
Procedure: as §1, §2, §3

Binder	IC50 of IL-8 secretion, HaCaT, 10 nM human IL-36α, FIG. 1C [1] [nM]	IC50 of IL-8 secretion, HaCaT, 10 nM cynomolgus IL-36α, FIG. 2B [2] [nM]	IC50 of IL-8 secretion, HaCaT, 10 nM human IL-36γ, FIG. 1F (human IL-36γ, truncated [3]) [nM]	IC50 of IL-8 secretion, HaCaT, 10 nM cynomolgus IL-36γ, FIG. 2D [4] [nM]	IC50 of IL-8 secretion, primary human keratinocytes, 6.25 nM human IL-36α, FIG. 4A [5] [nM]	IC50 of IL-8 secretion, primary human keratinocytes, 8.4 nM human IL-36γ, FIG. 4C (human IL-36γ, truncated [6]) [nM]	IC50 of IL-8 secretion, primary human monocytes, 20 nM human IL-36α, FIG. 5A [7] [nM]	IC50 of IL-8 secretion, primary human monocytes, 50 nM human IL-36γ, FIG. 5D (human IL-36γ, truncated [8]) [nM]	Kd [9] [nM]	koff [9] [s⁻¹]	kon [9] [M⁻¹ s⁻¹]	Kd (human IL-36γ, truncated [11]) [nM]	koff (human IL-36γ, truncated [11]) [s⁻¹]	kon (human IL-36γ, truncated [11]) [M⁻¹ s⁻¹]	Kd [12] [nM]	koff [12] [s⁻¹]	kon [12] [M⁻¹ s⁻¹]	Kd [13] [nM]	koff [13] [s⁻¹]	kon [13] [M⁻¹ s⁻¹]	also measured
144L124B (antibody, V domains shown, Mouse monoclonal from hybridoma; mouse IgG heavy and lambda light chain; Same VH and VL as 144L180A) VH: EVQLQQSGAELVKPGASVKLSCTASGFNIKDTYIYWVKQRPEQGLEWIGRIDPANGYTRYDPKFQGKATMTADTSSNTAYLQLSSLTSEDTAVYYCARYEYYDSSFYFDYWGQGTTLTVSS VL: QAVVTQESALTTSPGETVTLTCRSSTGAVTTSNYANWVQEKPDHLFTGLIGGTNNRAPGVPARFSGSLIGDKAALTITGAQTEDEAIYFCALWYSNHLVFGGGTKLTVL	42	14.2	15.8	28.3	11.1	15.8	44.2	41.2	3.56	0.0417	1.17e+07	0.833	0.000691	829000	2.54	0.0192	7.56e+06	0.824	0.000488	593000	IC50 of IL-8 secretion, primary human monocytes, 6 nM human IL-36γ, FIG. 5C (human IL-36γ, truncated [8]): 19.1 nM
144L133B (antibody, V domains shown) VH: EVQLQQSGAELVKPGASVKLSCTASGFNIKDTYMYWVKQRPEQGLEWIGRIDPAIGTTRYDPKFQGKATLTADTSSNTAFLQLSSLTSEDTAVYYCARYDYSGSSFYFDYWGRGTTLTVSS VL: QAVVTQESALTTSPGETVTLTCRSSTGAVTTSNYANWVQEKPDHLFTGLIGGTNNRAPGVPARFSGSLIGDKAALTITGAQTEDEAIYFCALWYSNHLVFGGGTKLTVL	28.7	9.61	12.9	20.6			39.5	39.6													

Now from value to binder, other results behind:

IC50 of IL-8 secretion, HaCaT, 10 nM human IL-36α, FIG. 1C [1] [nM]	IC50 of IL-8 secretion, HaCaT, 10 nM cynomolgus IL-36α, FIG. 2B [2] [nM]	IC50 of IL-8 secretion, HaCaT, 10 nM human IL-36γ, FIG. 1F (human IL-36γ, truncated [3]) [nM]	IC50 of IL-8 secretion, HaCaT, 10 nM cynomolgus IL-36γ, FIG. 2D [4] [nM]	IC50 of IL-8 secretion, primary human keratinocytes, 6.25 nM human IL-36α, FIG. 4A [5] [nM]	IC50 of IL-8 secretion, primary human keratinocytes, 8.4 nM human IL-36γ, FIG. 4C (human IL-36γ, truncated [6]) [nM]	IC50 of IL-8 secretion, primary human monocytes, 20 nM human IL-36α, FIG. 5A [7] [nM]	IC50 of IL-8 secretion, primary human monocytes, 50 nM human IL-36γ, FIG. 5D (human IL-36γ, truncated [8]) [nM]	Kd [9] [nM]	koff [9] [s⁻¹]	kon [9] [M⁻¹ s⁻¹]	Kd (human IL-36γ, truncated [11]) [nM]	koff (human IL-36γ, truncated [11]) [s⁻¹]	kon (human IL-36γ, truncated [11]) [M⁻¹ s⁻¹]	Kd [12] [nM]	koff [12] [s⁻¹]	kon [12] [M⁻¹ s⁻¹]	Kd [13] [nM]	koff [13] [s⁻¹]	kon [13] [M⁻¹ s⁻¹]	Binder	also measured
7.77	4.91	9.54	13.2	2.32	12.8	7.15	33.3	2.18	0.000309	142000	1.48	0.000218	147000	1.64	0.000267	163000	1.84	0.000342	186000	chimeric m/h 144D464A (antibody, human IgG1, lambda, V domains shown, Mouse VH/VL joined to human IgG1 constant and human Ig lambda (IGLC2) constant; also called chimeric mouse/human (m/h) 144D464A antibody) VH: EVQLQQSGAELVKPGASVRLSCTASGFNIKDTYIHWVKQRPEQGLEWIGRIDPAIGTTRYDPKFQGKATITTDTSSDTVHLQFSSLTSEDTAVYYCARLHYFGNNFFFDYWGQGTTLTVSS VL: QAVVTQESALTTSPGEAVTLTCRSSSGAVTTSNYANWVQEKPDHLFAGLIGGTNDRAPGVPARFSGSLIGDKAALTITGAQTEDEAIYFCALWFSNHWVFGGGTKLTVLG	IC50 of IL-8 secretion, HaCaT, 10 nM human IL-36α, FIG. 1A [1]: 3.84 nM; IC50 of IL-8 secretion, HaCaT, 10 nM human IL-36γ, FIG. 1D (human IL-36γ, truncated [3]): 6.43 nM; IC50 of IL-8 secretion, primary human keratinocytes, 8 nM human IL-36α, FIG. 4B [5]: 12.3 nM; IC50 of IL-8 secretion, primary human keratinocytes, 8.4 nM human IL-36γ, FIG. 4D (human IL-36γ, truncated [6]): 10 nM; IC50 of IL-8 secretion, primary human monocytes, 40 nM human IL-36α, FIG. 5B [7]: 22.4 nM; Kd [10]: 1.08 nM; koff [10]: 0.000391 s⁻¹; kon [10]: 361000 M⁻¹ s⁻¹
22.5	15.7	21.3	30.3			96.9	50.9													144L180A (antibody, V domains shown) VH: EVQLQQSGAELVKPGASVKLSCTASGFNIKDTYIYWVKQRPEQGLEWIGRIDPANGYTRYDPKFQGKATMTADTSSNTAYLQLSSLTSEDTAVYYCARYEYYDSSFYFDYWGQGTTLTVSS VL: QAVVTQESALTTSPGETVTLTCRSSTGAVTTSNYANWVQEKPDHLFTGLIGGTNNRAPGVPARFSGSLIGDKAALTITGAQTEDEAIYFCALWYSNHLVFGGGTKLTVL	IC50 of IL-8 secretion, primary human monocytes, 6 nM human IL-36γ, FIG. 5C (human IL-36γ, truncated [8]): 5.49 nM
